According to patent publication US20220010021A1 (Sanofi, published 2022):

B1: 16H7 variant, light chain G23K (antibody, human IgG4 S228P, lambda, V domains shown)
VH: not shown
VL: SYVLTQPPSVSVAPGQTARITCKGNNIGSESVHWYQQKPGQAPVLVVYDDSDRPSGIPERFSGSNSGNTATLTISRVEAGDEADYYCQVWDGNSDHVVFGGGTKLTVLG
notes: IgG4 backbone
B2: 16H7 variant, light chain G23L (antibody, human IgG4 S228P, lambda, V domains shown)
VH: not shown
VL: SYVLTQPPSVSVAPGQTARITCLGNNIGSESVHWYQQKPGQAPVLVVYDDSDRPSGIPERFSGSNSGNTATLTISRVEAGDEADYYCQVWDGNSDHVVFGGGTKLTVLG
notes: IgG4 backbone
B3: 16H7 variant, light chain G23M (antibody, human IgG4 S228P, lambda, V domains shown)
VH: not shown
VL: SYVLTQPPSVSVAPGQTARITCMGNNIGSESVHWYQQKPGQAPVLVVYDDSDRPSGIPERFSGSNSGNTATLTISRVEAGDEADYYCQVWDGNSDHVVFGGGTKLTVLG
notes: IgG4 backbone
B4: 16H7 variant, light chain G23N (antibody, human IgG4 S228P, lambda, V domains shown)
VH: not shown
VL: SYVLTQPPSVSVAPGQTARITCNGNNIGSESVHWYQQKPGQAPVLVVYDDSDRPSGIPERFSGSNSGNTATLTISRVEAGDEADYYCQVWDGNSDHVVFGGGTKLTVLG
notes: IgG4 backbone
B5: 16H7 variant, light chain G23P (antibody, human IgG4 S228P, lambda, V domains shown)
VH: not shown
VL: SYVLTQPPSVSVAPGQTARITCPGNNIGSESVHWYQQKPGQAPVLVVYDDSDRPSGIPERFSGSNSGNTATLTISRVEAGDEADYYCQVWDGNSDHVVFGGGTKLTVLG
notes: IgG4 backbone
B6: 16H7 variant, light chain G23R (antibody, human IgG4 S228P, lambda, V domains shown)
VH: not shown
VL: SYVLTQPPSVSVAPGQTARITCRGNNIGSESVHWYQQKPGQAPVLVVYDDSDRPSGIPERFSGSNSGNTATLTISRVEAGDEADYYCQVWDGNSDHVVFGGGTKLTVLG
notes: IgG4 backbone
B7: 16H7 variant, light chain G23S (antibody, human IgG4 S228P, lambda, V domains shown)
VH: not shown
VL: SYVLTQPPSVSVAPGQTARITCSGNNIGSESVHWYQQKPGQAPVLVVYDDSDRPSGIPERFSGSNSGNTATLTISRVEAGDEADYYCQVWDGNSDHVVFGGGTKLTVLG
notes: IgG4 backbone
B8: 16H7 variant, light chain G23T (antibody, human IgG4 S228P, lambda, V domains shown)
VH: not shown
VL: SYVLTQPPSVSVAPGQTARITCTGNNIGSESVHWYQQKPGQAPVLVVYDDSDRPSGIPERFSGSNSGNTATLTISRVEAGDEADYYCQVWDGNSDHVVFGGGTKLTVLG
notes: IgG4 backbone
B9: 16H7 variant, light chain G23V (antibody, human IgG4 S228P, lambda, V domains shown)
VH: not shown
VL: SYVLTQPPSVSVAPGQTARITCVGNNIGSESVHWYQQKPGQAPVLVVYDDSDRPSGIPERFSGSNSGNTATLTISRVEAGDEADYYCQVWDGNSDHVVFGGGTKLTVLG
notes: IgG4 backbone
B10: 16H7 variant, light chain G23Y (antibody, human IgG4 S228P, lambda, V domains shown)
VH: not shown
VL: SYVLTQPPSVSVAPGQTARITCYGNNIGSESVHWYQQKPGQAPVLVVYDDSDRPSGIPERFSGSNSGNTATLTISRVEAGDEADYYCQVWDGNSDHVVFGGGTKLTVLG
notes: IgG4 backbone
B11: 16H7 variant, light chain G24A (antibody, human IgG4 S228P, lambda, V domains shown)
VH: not shown
VL: SYVLTQPPSVSVAPGQTARITCGANNIGSESVHWYQQKPGQAPVLVVYDDSDRPSGIPERFSGSNSGNTATLTISRVEAGDEADYYCQVWDGNSDHVVFGGGTKLTVLG
notes: IgG4 backbone
B12: 16H7 variant, light chain G24C (antibody, human IgG4 S228P, lambda, V domains shown)
VH: not shown
VL: SYVLTQPPSVSVAPGQTARITCGCNNIGSESVHWYQQKPGQAPVLVVYDDSDRPSGIPERFSGSNSGNTATLTISRVEAGDEADYYCQVWDGNSDHVVFGGGTKLTVLG
notes: IgG4 backbone
B13: 16H7 variant, light chain G24E (antibody, human IgG4 S228P, lambda, V domains shown)
VH: not shown
VL: SYVLTQPPSVSVAPGQTARITCGENNIGSESVHWYQQKPGQAPVLVVYDDSDRPSGIPERFSGSNSGNTATLTISRVEAGDEADYYCQVWDGNSDHVVFGGGTKLTVLG
notes: IgG4 backbone
B14: 16H7 variant, light chain G24F (antibody, human IgG4 S228P, lambda, V domains shown)
VH: not shown
VL: SYVLTQPPSVSVAPGQTARITCGFNNIGSESVHWYQQKPGQAPVLVVYDDSDRPSGIPERFSGSNSGNTATLTISRVEAGDEADYYCQVWDGNSDHVVFGGGTKLTVLG
notes: IgG4 backbone
B15: 16H7 variant, light chain G24H (antibody, human IgG4 S228P, lambda, V domains shown)
VH: not shown
VL: SYVLTQPPSVSVAPGQTARITCGHNNIGSESVHWYQQKPGQAPVLVVYDDSDRPSGIPERFSGSNSGNTATLTISRVEAGDEADYYCQVWDGNSDHVVFGGGTKLTVLG
notes: IgG4 backbone
B16: 16H7 variant, light chain G24I (antibody, human IgG4 S228P, lambda, V domains shown)
VH: not shown
VL: SYVLTQPPSVSVAPGQTARITCGINNIGSESVHWYQQKPGQAPVLVVYDDSDRPSGIPERFSGSNSGNTATLTISRVEAGDEADYYCQVWDGNSDHVVFGGGTKLTVLG
notes: IgG4 backbone
B17: 16H7 variant, light chain G24K (antibody, human IgG4 S228P, lambda, V domains shown)
VH: not shown
VL: SYVLTQPPSVSVAPGQTARITCGKNNIGSESVHWYQQKPGQAPVLVVYDDSDRPSGIPERFSGSNSGNTATLTISRVEAGDEADYYCQVWDGNSDHVVFGGGTKLTVLG
notes: IgG4 backbone
B18: 16H7 variant, light chain G24L (antibody, human IgG4 S228P, lambda, V domains shown)
VH: not shown
VL: SYVLTQPPSVSVAPGQTARITCGLNNIGSESVHWYQQKPGQAPVLVVYDDSDRPSGIPERFSGSNSGNTATLTISRVEAGDEADYYCQVWDGNSDHVVFGGGTKLTVLG
notes: IgG4 backbone
B19: 16H7 variant, light chain G24M (antibody, human IgG4 S228P, lambda, V domains shown)
VH: not shown
VL: SYVLTQPPSVSVAPGQTARITCGMNNIGSESVHWYQQKPGQAPVLVVYDDSDRPSGIPERFSGSNSGNTATLTISRVEAGDEADYYCQVWDGNSDHVVFGGGTKLTVLG
notes: IgG4 backbone
B20: 16H7 variant, light chain G24N (antibody, human IgG4 S228P, lambda, V domains shown)
VH: not shown
VL: SYVLTQPPSVSVAPGQTARITCGNNNIGSESVHWYQQKPGQAPVLVVYDDSDRPSGIPERFSGSNSGNTATLTISRVEAGDEADYYCQVWDGNSDHVVFGGGTKLTVLG
notes: IgG4 backbone
B21: 16H7 variant, light chain G24R (antibody, human IgG4 S228P, lambda, V domains shown)
VH: not shown
VL: SYVLTQPPSVSVAPGQTARITCGRNNIGSESVHWYQQKPGQAPVLVVYDDSDRPSGIPERFSGSNSGNTATLTISRVEAGDEADYYCQVWDGNSDHVVFGGGTKLTVLG
notes: IgG4 backbone
B22: 16H7 variant, light chain G24S (antibody, human IgG4 S228P, lambda, V domains shown)
VH: not shown
VL: SYVLTQPPSVSVAPGQTARITCGSNNIGSESVHWYQQKPGQAPVLVVYDDSDRPSGIPERFSGSNSGNTATLTISRVEAGDEADYYCQVWDGNSDHVVFGGGTKLTVLG
notes: IgG4 backbone
B23: 16H7 variant, light chain G24T (antibody, human IgG4 S228P, lambda, V domains shown)
VH: not shown
VL: SYVLTQPPSVSVAPGQTARITCGTNNIGSESVHWYQQKPGQAPVLVVYDDSDRPSGIPERFSGSNSGNTATLTISRVEAGDEADYYCQVWDGNSDHVVFGGGTKLTVLG
notes: IgG4 backbone
B24: 16H7 variant, light chain G24V (antibody, human IgG4 S228P, lambda, V domains shown)
VH: not shown
VL: SYVLTQPPSVSVAPGQTARITCGVNNIGSESVHWYQQKPGQAPVLVVYDDSDRPSGIPERFSGSNSGNTATLTISRVEAGDEADYYCQVWDGNSDHVVFGGGTKLTVLG
notes: IgG4 backbone
B25: 16H7 variant, light chain G24W (antibody, human IgG4 S228P, lambda, V domains shown)
VH: not shown
VL: SYVLTQPPSVSVAPGQTARITCGWNNIGSESVHWYQQKPGQAPVLVVYDDSDRPSGIPERFSGSNSGNTATLTISRVEAGDEADYYCQVWDGNSDHVVFGGGTKLTVLG
notes: IgG4 backbone
B26: 16H7 variant, light chain G24Y (antibody, human IgG4 S228P, lambda, V domains shown)
VH: not shown
VL: SYVLTQPPSVSVAPGQTARITCGYNNIGSESVHWYQQKPGQAPVLVVYDDSDRPSGIPERFSGSNSGNTATLTISRVEAGDEADYYCQVWDGNSDHVVFGGGTKLTVLG
notes: IgG4 backbone

Experiments:
[1] = biological target: human FGFR1c/KLB cell surface receptor complex on iLite FGF21 reporter cells (human, UniProt P11362 22-822; Q86Z14 1-1044); assay: cell-based or functional assay; for Mean E max (%): reference of the scale not given here
Sequence of human FGFR1c/KLB cell surface receptor complex on iLite FGF21 reporter cells (P11362 22-822, chain 1 of 2): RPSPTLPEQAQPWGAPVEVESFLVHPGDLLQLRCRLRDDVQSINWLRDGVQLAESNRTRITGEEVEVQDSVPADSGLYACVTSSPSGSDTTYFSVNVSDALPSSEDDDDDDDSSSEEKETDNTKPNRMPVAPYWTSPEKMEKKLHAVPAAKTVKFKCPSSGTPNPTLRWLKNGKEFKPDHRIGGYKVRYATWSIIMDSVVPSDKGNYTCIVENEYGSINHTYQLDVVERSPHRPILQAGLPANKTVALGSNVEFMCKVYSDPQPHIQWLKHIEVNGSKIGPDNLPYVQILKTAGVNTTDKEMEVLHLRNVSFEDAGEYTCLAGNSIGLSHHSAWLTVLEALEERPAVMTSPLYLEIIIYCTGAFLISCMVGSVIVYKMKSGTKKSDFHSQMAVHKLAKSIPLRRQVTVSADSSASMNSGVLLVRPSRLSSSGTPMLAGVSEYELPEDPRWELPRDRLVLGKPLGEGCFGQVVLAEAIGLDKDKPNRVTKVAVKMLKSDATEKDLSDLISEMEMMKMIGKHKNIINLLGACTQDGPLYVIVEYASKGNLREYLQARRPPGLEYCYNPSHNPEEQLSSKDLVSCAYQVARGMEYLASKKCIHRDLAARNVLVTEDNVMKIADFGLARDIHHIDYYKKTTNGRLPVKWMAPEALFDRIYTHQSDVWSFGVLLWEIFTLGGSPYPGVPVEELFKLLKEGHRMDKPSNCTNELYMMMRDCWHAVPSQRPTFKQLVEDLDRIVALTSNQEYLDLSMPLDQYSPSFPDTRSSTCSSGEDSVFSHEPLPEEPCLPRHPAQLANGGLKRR
Sequence of human FGFR1c/KLB cell surface receptor complex on iLite FGF21 reporter cells (Q86Z14 whole entry, chain 2 of 2): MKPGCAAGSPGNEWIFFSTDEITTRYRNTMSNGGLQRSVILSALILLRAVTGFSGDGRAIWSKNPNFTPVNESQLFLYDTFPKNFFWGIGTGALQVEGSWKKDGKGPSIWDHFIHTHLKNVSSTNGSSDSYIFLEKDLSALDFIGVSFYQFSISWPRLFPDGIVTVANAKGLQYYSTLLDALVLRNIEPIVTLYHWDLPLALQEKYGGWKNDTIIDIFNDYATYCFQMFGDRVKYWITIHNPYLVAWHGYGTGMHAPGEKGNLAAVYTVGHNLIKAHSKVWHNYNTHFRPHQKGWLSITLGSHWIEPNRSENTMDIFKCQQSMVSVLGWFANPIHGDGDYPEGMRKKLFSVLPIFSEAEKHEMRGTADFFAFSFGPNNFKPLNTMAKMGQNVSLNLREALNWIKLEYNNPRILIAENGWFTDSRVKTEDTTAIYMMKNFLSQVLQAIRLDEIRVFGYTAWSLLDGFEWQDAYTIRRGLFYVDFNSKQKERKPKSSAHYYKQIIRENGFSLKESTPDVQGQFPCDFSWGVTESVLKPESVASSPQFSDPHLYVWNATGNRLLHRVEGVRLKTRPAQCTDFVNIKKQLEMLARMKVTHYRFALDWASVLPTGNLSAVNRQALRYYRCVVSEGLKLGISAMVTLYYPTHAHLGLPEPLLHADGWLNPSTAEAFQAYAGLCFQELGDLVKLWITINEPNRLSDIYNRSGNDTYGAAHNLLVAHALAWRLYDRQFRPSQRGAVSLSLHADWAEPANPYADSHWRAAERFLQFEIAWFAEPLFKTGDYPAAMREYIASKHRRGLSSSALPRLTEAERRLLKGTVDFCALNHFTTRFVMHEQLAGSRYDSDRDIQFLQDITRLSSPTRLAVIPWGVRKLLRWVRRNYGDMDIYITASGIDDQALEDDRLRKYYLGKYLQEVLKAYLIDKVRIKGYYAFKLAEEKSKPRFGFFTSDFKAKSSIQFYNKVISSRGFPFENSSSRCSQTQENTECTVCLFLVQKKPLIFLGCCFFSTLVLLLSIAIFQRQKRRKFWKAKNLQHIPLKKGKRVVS

human beta-Klotho (KLB) = biological target: T1, human beta-Klotho (KLB) (human, UniProt Q86Z14 53-997); assay: BLI off-rate screen (Octet), Ab captured via Fc;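 note: antibody supernatants applied at 25 µg/mL, dissociation monitored over 1800 s in D-PBS with 0.1% BSA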
T1 construct: also called human KLB
T1 sequence (looked up): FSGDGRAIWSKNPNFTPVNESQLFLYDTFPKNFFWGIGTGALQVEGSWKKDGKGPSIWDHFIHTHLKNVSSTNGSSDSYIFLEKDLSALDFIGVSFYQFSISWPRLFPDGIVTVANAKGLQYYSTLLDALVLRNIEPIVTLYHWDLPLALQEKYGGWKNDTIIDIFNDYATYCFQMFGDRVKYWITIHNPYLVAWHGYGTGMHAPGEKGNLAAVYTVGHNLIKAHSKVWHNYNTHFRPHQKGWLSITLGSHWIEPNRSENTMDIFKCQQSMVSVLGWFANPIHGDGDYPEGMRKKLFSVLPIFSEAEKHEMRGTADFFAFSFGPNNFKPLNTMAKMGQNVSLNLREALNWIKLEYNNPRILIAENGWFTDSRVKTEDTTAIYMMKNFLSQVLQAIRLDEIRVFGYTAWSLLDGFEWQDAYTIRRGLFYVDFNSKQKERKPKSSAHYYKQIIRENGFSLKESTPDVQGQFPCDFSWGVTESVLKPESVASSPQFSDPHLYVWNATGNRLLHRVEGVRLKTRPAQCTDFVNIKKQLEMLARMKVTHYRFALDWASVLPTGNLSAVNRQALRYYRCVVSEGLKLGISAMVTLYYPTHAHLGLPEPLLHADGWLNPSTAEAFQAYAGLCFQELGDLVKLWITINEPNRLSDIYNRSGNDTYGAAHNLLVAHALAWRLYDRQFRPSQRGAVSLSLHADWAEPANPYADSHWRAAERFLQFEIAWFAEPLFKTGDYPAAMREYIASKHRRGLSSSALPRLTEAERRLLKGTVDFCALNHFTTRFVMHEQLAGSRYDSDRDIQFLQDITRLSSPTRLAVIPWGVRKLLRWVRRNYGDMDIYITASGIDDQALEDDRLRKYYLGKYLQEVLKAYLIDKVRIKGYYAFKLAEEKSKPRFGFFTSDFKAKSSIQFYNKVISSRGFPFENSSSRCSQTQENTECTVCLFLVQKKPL

| Binder | Mean E max (%) [1] [%] | Mean EC50 [1] [nM] | koff (human beta-Klotho (KLB)) [s⁻¹] |
| --- | --- | --- | --- |
| B1 | 90 | 0.104 | 3.9e-05 |
| B2 | 106 | 0.131 | 9.1e-05 |
| B3 | 91 | 0.122 | 4.1e-05 |
| B4 | 100 | 0.138 | 2.7e-05 |
| B5 | 101 | 0.117 | 3.8e-05 |
| B6 | 103 | 0.135 | 3.1e-05 |
| B7 | 120 | 0.143 | 1e-07 |
| B8 | 112 | 0.105 | 1.5e-05 |
| B9 | 93 | 0.105 | 3.9e-05 |
| B10 | 107 | 0.124 | 4.2e-05 |
| B11 | 95 | 0.094 | 3.6e-05 |
| B12 | 104 | 0.106 | 2.2e-05 |
| B13 | 112 | 0.118 | 2.7e-05 |
| B14 | 107 | 0.151 | 2.3e-05 |
| B15 | 99 | 0.125 | 2.7e-05 |
| B16 | 109 | 0.143 | 2.7e-05 |
| B17 | 102 | 0.143 | 3.9e-05 |
| B18 | 108 | 0.161 | 3.4e-05 |
| B19 | 109 | 0.115 | 4.8e-05 |
| B20 | 103 | 0.114 | 1.7e-05 |
| B21 | 98 | 0.106 | 1.5e-06 |
| B22 | 121 | 0.135 | 8.3e-06 |
| B23 | 106 | 0.139 | 6.9e-05 |
| B24 | 102 | 0.125 | 8.5e-05 |
| B25 | 110 | 0.145 | 3.7e-05 |
| B26 | 107 | 0.137 | 4.1e-05 |
